US11440938B2, “Stabilized minimal coiled-coil mimetics” (NEW YORK UNIVERSITY, priority 2015, dated 2022)
Values joined by “and” are separate entries in the source; they are usually repeats but may differ in a detail not shown here. Identical values can stand only once. Like-named read-outs stand apart in the source and are kept apart here. Bridges are numbered along the chain shown (N, C = ends). Where no end group is shown, it is not given here.

Experiments:
[1] = Circular dichroism spectroscopy of helical conformational stability; format: physicochemical; settings: 50 mM aqueous KF, pH 7.4, 20 μM peptide
[2] = target: T1, fluorescein-labeled N2B peptide (NHR2-binding motif of E-proteins) (Homo sapiens, UniProt Q99081); experiment: Fluorescence polarization direct binding assay with fluorescein-labeled N2B peptide (flu-N2B); settings: 100 nM flu-N2B, 25° C., 10 mM Tris 20 mM NaCl pH 7.4, 0.1% pluronic F-68, triplicate, listed as NHR2482-551, read-out: Kd (binding affinity to fluorescein-labeled N2B peptide)
[3] = target: T1, fluorescein-labeled N2B peptide (NHR2-binding motif of E-proteins); settings: Sun et al., Nature 500:93 (2013); read-out: KD with flu-N2B, literature reported; cited from earlier work

Kd [2]	Molecule	Helical character by CD (in words) [1]	Minimum at 222/208 (ratio of CD bands) [1]	|θ222| (CD ellipticity at 222 nm) [1]	Kd [3] [µM]
–	cyclo(GGSSGGELAELEWRLGGSNGGLAERIARLR (macrocyclic; Cyclic peptide AB-2; (1)..(1) Position 1 and 30 are linked by a peptide bond to form a cyclic peptide; (30)..(30) Position 1 and 30 are linked by a peptide bond to form a cyclic peptide)	minimal helicity	0.62	8950	–
–	Ac-LWERIARLR-NH2 [B]	nonhelical signatures	–	–	–
–	Ac-ELAELEWRL-NH2	nonhelical signatures	–	–	–
–	ECAELEWRLGGSSGGLAERIARCR (disulfide 2-23; not fully specified (N-terminus, C-terminus)) [AB-3]	did not provide significant helical stabilization	0.62	9460	–
–	AB-1: HBS-A helix joined to peptide B by a GGSSGG linker; N-terminal HBS constraint (SEQ ID NO:3) (XELXELEWRLGGSSGGLAERIARLR; not fully specified; HBS constraint; Hydrogen bond surrogate peptide AB-1; (1)..(1) Xaa at position 1 is pentenoic acid; (4)..(4) Xaa at position 4 is N-allylalanine)	weakly helical signature	0.73	8475	–
356 µM and 363 µM	NHR2: native GST-tagged NHR2 coiled-coil domain (482-551) of AML1-ETO, expressed in E. coli (protein, UniProt Q06455 482-551, looked up, fragment, NHR2 coiled-coil domain GST tag, native GST-tagged NHR2 coiled-coil domain (482-551) of AML1-ETO, expressed in E. coli) ERAKMERTVAEAKRQAAEDALAVINQQEDSSESCWNCGRKASETCSGCNTARYCGSFCQHKDWEKHHHIC	–	–	–	380 ± 18
